Measurements taken from patent publication US20220062341A1 (KIRIN, published 2022).

Tests used:
CD3E = CD3E (human, UniProt P07766 23-207); assay: cell-based or functional assay
[1] = target: CD3 subunits (CD3E, CD3G, CD3D, CD3Z) (human, UniProt P07766 23-207; P09693 23-182; P04234 22-171; P20963 22-164); assay: cell-based or functional assay
Sequence of CD3 subunits (CD3E, CD3G, CD3D, CD3Z) (P07766 23-207, chain 1 of 4): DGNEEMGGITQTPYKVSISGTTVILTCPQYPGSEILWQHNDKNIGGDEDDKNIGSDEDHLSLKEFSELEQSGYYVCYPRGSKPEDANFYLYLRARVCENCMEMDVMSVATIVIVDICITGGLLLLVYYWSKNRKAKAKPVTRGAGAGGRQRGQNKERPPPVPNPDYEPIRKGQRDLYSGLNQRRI
Sequence of CD3 subunits (CD3E, CD3G, CD3D, CD3Z) (P09693 23-182, chain 2 of 4): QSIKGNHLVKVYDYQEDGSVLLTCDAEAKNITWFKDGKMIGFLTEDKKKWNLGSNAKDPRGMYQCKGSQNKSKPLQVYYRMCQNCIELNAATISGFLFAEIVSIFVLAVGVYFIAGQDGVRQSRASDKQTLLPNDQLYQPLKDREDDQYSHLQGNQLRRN
Sequence of CD3 subunits (CD3E, CD3G, CD3D, CD3Z) (P04234 22-171, chain 3 of 4): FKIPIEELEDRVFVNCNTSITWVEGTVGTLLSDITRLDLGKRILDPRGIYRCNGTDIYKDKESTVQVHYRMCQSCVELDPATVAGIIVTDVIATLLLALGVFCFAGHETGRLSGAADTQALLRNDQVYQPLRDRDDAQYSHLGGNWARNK
Sequence of CD3 subunits (CD3E, CD3G, CD3D, CD3Z) (P20963 22-164, chain 4 of 4): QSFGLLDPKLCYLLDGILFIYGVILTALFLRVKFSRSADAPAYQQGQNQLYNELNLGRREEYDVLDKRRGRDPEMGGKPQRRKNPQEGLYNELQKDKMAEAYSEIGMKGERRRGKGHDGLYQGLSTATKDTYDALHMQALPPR

Sequence of CD3E (P07766 23-207): as the sequence (P07766 23-207, chain 1 of 4) above

CD3E-positive proportion [%] (Avg, n = 2), CD3-stably expressing 293T cells (CD3E) | expression of CD3 (CD3-positive proportion), cells differentiated from iPS-derived HPCs (FF-WJs524), Day 21 [1] [%] | Binder
70.7 | – | modified TCR ba16 (TCR) TCR alpha: DVYITDKTVLDMRSMDFKSNSAVAWSNKSDFACANAFNNSIIPEDTFFPSPESSCDVKLVEKSFETDTNLNFQNLSVIGFRILLLKVAGFNLLMTLRLWSS TCR beta: AKPVTQIVSAEAWGRADCGFTSESYQQGVLSATILYEILLGKATLYAVLVSALVLMAMVKRKDSRG
81.9 | – | modified TCR ba17 (TCR) TCR alpha: KSNSAVAWSNKSDFACANAFNNSIIPEDTFFPSPESSCDVKLVEKSFETDTNLNFQNLSVIGFRILLLKVAGFNLLMTLRLWSS TCR beta: AKPVTQIVSAEAWGRADCGFTSESYQQGVLSATILYEILLGKATLYAVLVSALVLMAMVKRKDSRG
89.5 | – | modified TCR ba18 (TCR) TCR alpha: IPEDTFFPSPESSCDVKLVEKSFETDTNLNFQNLSVIGFRILLLKVAGFNLLMTLRLWSS TCR beta: AKPVTQIVSAEAWGRADCGFTSESYQQGVLSATILYEILLGKATLYAVLVSALVLMAMVKRKDSRG
47.6 | – | modified TCR ba6 (TCR) TCR alpha: NIQNPDPAVYQLRDSKSSDKSVCLFTDFDSQTNVSQSKDSDVYITDKTVLDMRSMDFKSNSAVAWSNKSDFACANAFNNSIIPEDTFFPSPESSCDVKLVEKSFETDTNLNFQNLSVIGFRILLLKVAGFNLLMTLRLWSS TCR beta: AKPVTQIVSAEAWGRADCGFTSESYQQGVLSATILYEILLGKATLYAVLVSALVLMAMVKRKDSRG
90.3 | – | modified TCR ba8 (TCR) TCR alpha: DVYITDKTVLDMRSMDFKSNSAVAWSNKSDFACANAFNNSIIPEDTFFPSPESSCDVKLVEKSFETDTNLNFQNLSVIGFRILLLKVAGFNLLMTLRLWSS TCR beta: EDLKNVFPPEVAVFEPSEAEISHTQKATLVCLATGFYPDHVELSWWVNGKEVHSGVSTDPQPLKEQPALNDSRYCLSSRLRVSATFWQNPRNHFRCQVQFYGLSENDEWTQDRAKPVTQIVSAEAWGRADCGFTSESYQQGVLSATILYEILLGKATLYAVLVSALVLMAMVKRKDSRG
84.5 | 50.4 | modified TCR ba2 (TCR) TCR alpha: NIQNPDPAVYQLRDSKSSDKSVCLFTDFDSQTNVSQSKDSDVYITDKTVLDMRSMDFKSNSAVAWSNKSDFACANAFNNSIIPEDTFFPSPESSCDVKLVEKSFETDTNLNFQNLSVIGFRILLLKVAGFNLLMTLRLWSS TCR beta: EDLKNVFPPEVAVFEPSEAEISHTQKATLVCLATGFYPDHVELSWWVNGKEVHSGVSTDPQPLKEQPALNDSRYCLSSRLRVSATFWQNPRNHFRCQVQFYGLSENDEWTQDRAKPVTQIVSAEAWGRADCGFTSESYQQGVLSATILYEILLGKATLYAVLVSALVLMAMVKRKDSRG
10.2 | 38.3 | modified TCR ba4 (TCR) TCR alpha: NIQNPDPAVYQLRDSKSSDKSVCLFTDFDSQTNVSQSKDSDVYITDKTVLDMRSMDFKSNSAVAWSNKSDFACANAFNNSIIPEDTFFPSPESSCDVKLVEKSFETDTNLNFQNLSVIGFRILLLKVAGFNLLMTLRLWSS TCR beta: VSTDPQPLKEQPALNDSRYCLSSRLRVSATFWQNPRNHFRCQVQFYGLSENDEWTQDRAKPVTQIVSAEAWGRADCGFTSESYQQGVLSATILYEILLGKATLYAVLVSALVLMAMVKRKDSRG
90.7 | 99.5 | modified TCR ba9 (TCR) TCR alpha: KSNSAVAWSNKSDFACANAFNNSIIPEDTFFPSPESSCDVKLVEKSFETDTNLNFQNLSVIGFRILLLKVAGFNLLMTLRLWSS TCR beta: EDLKNVFPPEVAVFEPSEAEISHTQKATLVCLATGFYPDHVELSWWVNGKEVHSGVSTDPQPLKEQPALNDSRYCLSSRLRVSATFWQNPRNHFRCQVQFYGLSENDEWTQDRAKPVTQIVSAEAWGRADCGFTSESYQQGVLSATILYEILLGKATLYAVLVSALVLMAMVKRKDSRG
48.4 | – | modified TCR ba5 (TCR) TCR alpha: NIQNPDPAVYQLRDSKSSDKSVCLFTDFDSQTNVSQSKDSDVYITDKTVLDMRSMDFKSNSAVAWSNKSDFACANAFNNSIIPEDTFFPSPESSCDVKLVEKSFETDTNLNFQNLSVIGFRILLLKVAGFNLLMTLRLWSS TCR beta: FRCQVQFYGLSENDEWTQDRAKPVTQIVSAEAWGRADCGFTSESYQQGVLSATILYEILLGKATLYAVLVSALVLMAMVKRKDSRG
88.7 | 99.8 | full-length TCR (ba1) (TCR) MLSLLLLLLGLGSVFSAVISQKPSRDICQRGTSLTIQCQVDSQVTMMFWYRQQPGQSLTLIATANQGSEATYESGFVIDKFPISRPNLTFSTLTVSNMSPEDSSIYLCSVDGQGNTGELFFGEGSRLTVLEDLKNVFPPEVAVFEPSEAEISHTQKATLVCLATGFYPDHVELSWWVNGKEVHSGVSTDPQPLKEQPALNDSRYCLSSRLRVSATFWQNPRNHFRCQVQFYGLSENDEWTQDRAKPVTQIVSAEAWGRADCGFTSESYQQGVLSATILYEILLGKATLYAVLVSALVLMAMVKRKDSRGSGSGEGRGSLLTCGDVEENPGPMACPGFLWALVISTCLEFSMAQTVTQSQPEMSVQEAETVTLSCTYDTSESDYYLFWYKQPPSRQMILVIRQEAYKQQNATENRFSVNFQKAAKSFSLKISDSQLGDAAMYFCAYWSNNNARLMFGDGTQLVVKPNIQNPDPAVYQLRDSKSSDKSVCLFTDFDSQTNVSQSKDSDVYITDKTVLDMRSMDFKSNSAVAWSNKSDFACANAFNNSIIPEDTFFPSPESSCDVKLVEKSFETDTNLNFQNLSVIGFRILLLKVAGFNLLMTLRLWSS
83.2 | – | modified TCR ba11 (TCR) TCR alpha: SVCLFTDFDSQTNVSQSKDSDVYITDKTVLDMRSMDFKSNSAVAWSNKSDFACANAFNNSIIPEDTFFPSPESSCDVKLVEKSFETDTNLNFQNLSVIGFRILLLKVAGFNLLMTLRLWSS TCR beta: ATLVCLATGFYPDHVELSWWVNGKEVHSGVSTDPQPLKEQPALNDSRYCLSSRLRVSATFWQNPRNHFRCQVQFYGLSENDEWTQDRAKPVTQIVSAEAWGRADCGFTSESYQQGVLSATILYEILLGKATLYAVLVSALVLMAMVKRKDSRG
40.4 | – | modified TCR ba13 (TCR) TCR alpha: KSNSAVAWSNKSDFACANAFNNSIIPEDTFFPSPESSCDVKLVEKSFETDTNLNFQNLSVIGFRILLLKVAGFNLLMTLRLWSS TCR beta: ATLVCLATGFYPDHVELSWWVNGKEVHSGVSTDPQPLKEQPALNDSRYCLSSRLRVSATFWQNPRNHFRCQVQFYGLSENDEWTQDRAKPVTQIVSAEAWGRADCGFTSESYQQGVLSATILYEILLGKATLYAVLVSALVLMAMVKRKDSRG
88.6 | – | modified TCR ba7 (TCR) TCR alpha: SVCLFTDFDSQTNVSQSKDSDVYITDKTVLDMRSMDFKSNSAVAWSNKSDFACANAFNNSIIPEDTFFPSPESSCDVKLVEKSFETDTNLNFQNLSVIGFRILLLKVAGFNLLMTLRLWSS TCR beta: EDLKNVFPPEVAVFEPSEAEISHTQKATLVCLATGFYPDHVELSWWVNGKEVHSGVSTDPQPLKEQPALNDSRYCLSSRLRVSATFWQNPRNHFRCQVQFYGLSENDEWTQDRAKPVTQIVSAEAWGRADCGFTSESYQQGVLSATILYEILLGKATLYAVLVSALVLMAMVKRKDSRG
51 | – | modified TCR ba12 (TCR) TCR alpha: DVYITDKTVLDMRSMDFKSNSAVAWSNKSDFACANAFNNSIIPEDTFFPSPESSCDVKLVEKSFETDTNLNFQNLSVIGFRILLLKVAGFNLLMTLRLWSS TCR beta: ATLVCLATGFYPDHVELSWWVNGKEVHSGVSTDPQPLKEQPALNDSRYCLSSRLRVSATFWQNPRNHFRCQVQFYGLSENDEWTQDRAKPVTQIVSAEAWGRADCGFTSESYQQGVLSATILYEILLGKATLYAVLVSALVLMAMVKRKDSRG
82.3 | – | modified TCR ba3 (TCR) TCR alpha: NIQNPDPAVYQLRDSKSSDKSVCLFTDFDSQTNVSQSKDSDVYITDKTVLDMRSMDFKSNSAVAWSNKSDFACANAFNNSIIPEDTFFPSPESSCDVKLVEKSFETDTNLNFQNLSVIGFRILLLKVAGFNLLMTLRLWSS TCR beta: ATLVCLATGFYPDHVELSWWVNGKEVHSGVSTDPQPLKEQPALNDSRYCLSSRLRVSATFWQNPRNHFRCQVQFYGLSENDEWTQDRAKPVTQIVSAEAWGRADCGFTSESYQQGVLSATILYEILLGKATLYAVLVSALVLMAMVKRKDSRG
56.5 | – | modified TCR ba15 (TCR) TCR alpha: SVCLFTDFDSQTNVSQSKDSDVYITDKTVLDMRSMDFKSNSAVAWSNKSDFACANAFNNSIIPEDTFFPSPESSCDVKLVEKSFETDTNLNFQNLSVIGFRILLLKVAGFNLLMTLRLWSS TCR beta: AKPVTQIVSAEAWGRADCGFTSESYQQGVLSATILYEILLGKATLYAVLVSALVLMAMVKRKDSRG
46.4 | – | modified TCR ba14 (TCR) TCR alpha: IPEDTFFPSPESSCDVKLVEKSFETDTNLNFQNLSVIGFRILLLKVAGFNLLMTLRLWSS TCR beta: ATLVCLATGFYPDHVELSWWVNGKEVHSGVSTDPQPLKEQPALNDSRYCLSSRLRVSATFWQNPRNHFRCQVQFYGLSENDEWTQDRAKPVTQIVSAEAWGRADCGFTSESYQQGVLSATILYEILLGKATLYAVLVSALVLMAMVKRKDSRG
